Laboratory results taken from patent US20090123940A1 (Johns Hopkins, published 2009).

Assays:
[1] = target: T1, NMDA receptor subunits NR1 and NR2A (UniProt P35439 19-938; Q00959 23-1464); assay: co-clustering in co-transfected 293 cells, immunostaining
T1 construct: whole, on cells; Co-expressed in 293 cells; also called NR1/2A

[2] = target: T2, NMDA receptor subunit NR1 (UniProt P35439 19-938); assay: as above
T2 construct: whole, on cells

[3] = target: T3, kainate receptor subunit GluR6 (UniProt P42260 32-908, limits assumed); assay: as above
T3 construct: whole, on cells

[4] = target: T4, neuronal glutamate transporter EAAC1 (UniProt P51907 1-523); assay: as above
T4 construct: whole, on cells
T4 sequence (looked up): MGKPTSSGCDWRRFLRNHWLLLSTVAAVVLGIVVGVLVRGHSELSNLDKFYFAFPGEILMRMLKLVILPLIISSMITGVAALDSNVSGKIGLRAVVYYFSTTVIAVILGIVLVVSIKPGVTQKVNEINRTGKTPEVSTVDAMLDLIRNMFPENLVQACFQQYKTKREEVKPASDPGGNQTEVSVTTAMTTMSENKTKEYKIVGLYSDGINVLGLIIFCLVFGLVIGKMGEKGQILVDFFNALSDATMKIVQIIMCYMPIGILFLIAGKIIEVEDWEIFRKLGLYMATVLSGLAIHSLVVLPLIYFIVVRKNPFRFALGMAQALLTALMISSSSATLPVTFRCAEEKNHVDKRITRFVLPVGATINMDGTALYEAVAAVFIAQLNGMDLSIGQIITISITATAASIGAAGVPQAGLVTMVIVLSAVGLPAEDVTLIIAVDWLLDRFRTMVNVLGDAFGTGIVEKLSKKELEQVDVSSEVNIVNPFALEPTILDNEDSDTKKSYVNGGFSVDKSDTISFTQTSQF

[5] = target: T5, HA-GluR6 (GluR6 with an N-terminal HA tag) (UniProt P42260 32-908); assay: co-IP from co-transfected HEK 293T cells
T5 construct: mature; also called wildtype HA GluR6

[6] = target: T6, EC1 domain of GluR6 (display construct) (UniProt P42260 32-561, limits assumed); assay: co-clustering on transfected cells
T6 construct: domain: EC1 domain
T6 sequence (looked up): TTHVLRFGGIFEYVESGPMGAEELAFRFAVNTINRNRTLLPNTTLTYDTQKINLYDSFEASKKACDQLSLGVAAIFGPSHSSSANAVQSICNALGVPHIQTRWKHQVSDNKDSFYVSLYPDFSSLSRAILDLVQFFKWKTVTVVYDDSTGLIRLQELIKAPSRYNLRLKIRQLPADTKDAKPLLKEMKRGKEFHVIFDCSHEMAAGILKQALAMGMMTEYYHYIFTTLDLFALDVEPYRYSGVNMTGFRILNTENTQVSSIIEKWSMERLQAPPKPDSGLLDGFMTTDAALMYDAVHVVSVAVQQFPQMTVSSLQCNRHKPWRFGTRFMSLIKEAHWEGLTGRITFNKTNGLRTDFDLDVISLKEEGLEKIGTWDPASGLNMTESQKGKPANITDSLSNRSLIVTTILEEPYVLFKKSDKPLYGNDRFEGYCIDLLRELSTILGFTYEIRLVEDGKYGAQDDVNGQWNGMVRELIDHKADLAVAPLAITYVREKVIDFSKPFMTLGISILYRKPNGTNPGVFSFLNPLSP

[7] = target: metabotropic glutamate receptor mGluR5 (UniProt P31424 21-1203, limits assumed); assay: biochemical assays, not described further

Measured: binding result

metabotropic glutamate receptor mGluR5, sequence (P31424 21-1203 limits assumed): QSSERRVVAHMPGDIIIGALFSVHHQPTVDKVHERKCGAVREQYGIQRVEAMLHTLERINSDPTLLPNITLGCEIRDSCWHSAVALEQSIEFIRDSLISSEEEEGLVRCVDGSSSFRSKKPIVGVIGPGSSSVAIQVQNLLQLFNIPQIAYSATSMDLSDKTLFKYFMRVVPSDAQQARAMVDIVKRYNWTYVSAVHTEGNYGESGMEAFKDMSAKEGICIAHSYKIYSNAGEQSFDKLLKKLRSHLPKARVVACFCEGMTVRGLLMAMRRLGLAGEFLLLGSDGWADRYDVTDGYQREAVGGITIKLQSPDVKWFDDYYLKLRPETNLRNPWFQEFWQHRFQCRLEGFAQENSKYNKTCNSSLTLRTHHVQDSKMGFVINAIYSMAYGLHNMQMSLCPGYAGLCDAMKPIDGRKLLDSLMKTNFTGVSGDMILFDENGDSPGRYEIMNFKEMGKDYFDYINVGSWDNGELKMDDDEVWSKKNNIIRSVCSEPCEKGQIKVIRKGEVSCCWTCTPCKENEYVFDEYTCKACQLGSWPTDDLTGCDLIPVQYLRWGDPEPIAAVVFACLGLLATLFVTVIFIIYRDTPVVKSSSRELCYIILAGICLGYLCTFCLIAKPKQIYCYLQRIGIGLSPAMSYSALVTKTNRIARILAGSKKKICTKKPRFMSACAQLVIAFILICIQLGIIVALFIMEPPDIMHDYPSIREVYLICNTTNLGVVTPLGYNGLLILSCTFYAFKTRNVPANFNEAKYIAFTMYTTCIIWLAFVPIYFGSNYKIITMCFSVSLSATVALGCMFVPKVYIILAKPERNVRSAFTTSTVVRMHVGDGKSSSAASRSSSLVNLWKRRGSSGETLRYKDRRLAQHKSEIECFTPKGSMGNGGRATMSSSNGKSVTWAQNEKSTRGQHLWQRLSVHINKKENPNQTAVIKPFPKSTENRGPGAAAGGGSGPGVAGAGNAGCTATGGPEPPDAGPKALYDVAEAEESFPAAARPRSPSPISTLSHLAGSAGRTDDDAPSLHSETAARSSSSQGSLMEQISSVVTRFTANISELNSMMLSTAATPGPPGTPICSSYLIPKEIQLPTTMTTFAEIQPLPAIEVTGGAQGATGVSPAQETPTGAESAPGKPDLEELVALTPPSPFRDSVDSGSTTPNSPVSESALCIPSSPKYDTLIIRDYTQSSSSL

B1: Neuronal activity regulated pentraxin (Narp) (ligand)
chain: QAQDNPIPGSRFVCTALPPEAARAGCPLPAMPMQGGALSPEEELRAAVLHWRETVVQQKETLGAQREAIRELTSKLARCEGLAGGKARGTGATGKDTMGDLPRDPGHVVEQLSRSLQTLKDRLESLELQLHTNASNAGLPSDFREVLQRRLGELERQLLRKVAELEDEKSLLHNETSAHRQKTENTLNALLQRVTELERGNSAFKSPDAFKVSLPLRTNYLYGKIKKTLPELYAFTICLWLRSSASPGIGTPFSYAVPGQANEIVLIEWGNNPIELLINDKVAQLPLFVSDGKWHHICITWTTRDGMWEAFQDGEKLGTGENLAPWHPIKPGGVLILGQEQDTVGGRFDATQAFVGELSQFNIWDRVLRAQEIINIANCSTNMPGNIIPWVDNNVDVFGGASKWPVETCEERLLDL
notes: Secreted, glycosylated, disulfide-linked multimer (>220 kDa on non-reducing gels); The signal peptide is called putative; also called neuronal pentraxin 2; untagged Narp
no binding: all assays above
